Here are results for 14 molecules from patent US20220323561A1 (ENTEROME S A, published 2022).

The target of experiment [1] is T1, HLA-A*0201 molecule expressed on human T2 cells (human).
T1 construct: also called HLA-A2
In words: T2 cells (HLA-A*0201), anti-HLA-A2 flow cytometry. A general note: In flow cytometry, cells or beads pass a laser one at a time.

For experiment [2], the target named is T1, HLA-A*0201 molecule expressed on human …. In words: T2 cells (HLA-A*0201), peptide at 0.1 µM, anti-HLA-A2 flow cytometry. On the procedure: (§1) T2 cells (5.104 cells per well) are incubated with decreasing concentrations of peptides from 100 μM to 0.1 μM (4 points: 100 μM, 10 μM, 1 μM, 0.1 μM) in serum-free medium (TexMacs) supplemented with […] of β2 Microglobulin at 37° C. for 16 hours. Cells are then washed two times and marked with the anti-HLA-A2 antibody coupled to PE (clone BB7.2, BD Pharmagen).
(§2) The relative affinity is then determined as follows: […]

For experiment [3] the target is unchanged. In words: T2 cells (HLA-A*0201), peptide titration, anti-HLA-A2 flow cytometry. On the procedure:
as §1, §2

The target is the same in experiment [4]. In words: T2 cells (HLA-A*0201), peptide at 100 µM, anti-HLA-A2 flow cytometry. On the procedure: as §1, §2
Experiment [5] has the same target. In words: T2 cells (HLA-A*0201), peptide at 1 µM, anti-HLA-A2 flow cytometry. On the procedure:
as §1, §2

Experiment [6] has the same target. In words: T2 cells (HLA-A*0201), peptide at 10 µM, anti-HLA-A2 flow cytometry. How it is done: as §1, §2

B1: TNFRSF13C-B11 (peptide)
peptide: FLFGAPASA
B1: in experiment [1], the binding result was “binds”.

B2: MS4A1-B12 (peptide)
peptide: YILGGLLMV
Consider B2, for which the “mean relative fluorescence intensity (HIV peptide = 100)” value (from here on “mean relative fluorescence intensity”) in experiment [2] is 1.2 % of HIV pol 589-597 at 100 µM; in experiment [4] it was 42 % of HIV pol 589-597 at 100 µM; in experiment [5] it was 1.1 % of HIV pol 589-597 at 100 µM; in experiment [6], 7.6 % of HIV pol 589-597 at 100 µM. In addition, the “concentration of peptide that induces 20% of HLA-A2 expression” value in experiment [3] amounted to 31.2 µM. The “in vitro binding affinity (relative to HIV pol reference peptide)” value in experiment [3] is 3.5 ratio to HIV pol 589-597.

B3: MS4A1-B43 (peptide)
peptide: AMNSLSLTV
For B3, in experiment [1], the binding result is recorded as “binds”.

B4: MS4A1-B4 (peptide)
peptide: AMNSLSLYI
B4: the “mean relative fluorescence intensity” value in experiment [2] is 0.5 % of HIV pol 589-597 at 100 µM; in experiment [4] it was 115 % of HIV pol 589-597 at 100 µM; in experiment [5] it was 1.9 % of HIV pol 589-597 at 100 µM; in experiment [6], 13.1 % of HIV pol 589-597 at 100 µM. Besides, the “concentration of peptide that induces 20% of HLA-A2 expression” value in experiment [3] is 12.3 µM. Also, the “in vitro binding affinity (relative to HIV pol reference peptide)” value in experiment [3] is 2.1 ratio to HIV pol 589-597.

B5: TNFRSF13C-B13 (peptide)
peptide: VLFGAPAYL
Take B5: the binding result in experiment [1] is “binds”.

B6: TNFRSF13C-B12 (peptide)
peptide: LLFGAPAGV
For the molecule B6, the binding result in experiment [1] is on record as “binds”.

B7: MS4A1-B42 (peptide)
peptide: YMNSLSLAL
notes: Printed as YMNSLSLAL
As for B7, in experiment [1], the binding result is on record as “binds”.

B8: CD22-B12 (peptide)
peptide: LIFEHPERV
On to B8, for which the binding result in experiment [1] was “binds”.

B9: CD22-B13 (peptide)
peptide: RVFEHPELV
For B9, in experiment [1], the binding result is on record as “binds”.

B10: MS4A1-H3 (peptide)
peptide: LMIPAGIYA
Consider B10, for which the “mean relative fluorescence intensity” value was 0 % of HIV pol 589-597 at 100 µM in experiment [2], 92.6 % of HIV pol 589-597 at 100 µM in experiment [4], 0.9 % of HIV pol 589-597 at 100 µM in experiment [5] and 35.7 % of HIV pol 589-597 at 100 µM in experiment [6]. Moreover, the “concentration of peptide that induces 20% of HLA-A2 expression” value in experiment [3] was 4.83 µM. Besides, in experiment [3], the “in vitro binding affinity (relative to HIV pol reference peptide)” value is 0.5 ratio to HIV pol 589-597.

B11: CD37-B12 (peptide)
peptide: ILAFVPLYL
For B11, the binding result in experiment [1] is on record as “binds”.

B12: MS4A1-B3 (peptide)
peptide: ILIPAGIYL
As to B12, the “mean relative fluorescence intensity” value in experiment [2] is 1.9 % of HIV pol 589-597 at 100 µM; in experiment [4], 88.8 % of HIV pol 589-597 at 100 µM; in experiment [5], 17.8 % of HIV pol 589-597 at 100 µM; in experiment [6], 87.8 % of HIV pol 589-597 at 100 µM. The “concentration of peptide that induces 20% of HLA-A2 expression” value in experiment [3] is 0.7 µM. For the same molecule, the “in vitro binding affinity (relative to HIV pol reference peptide)” value in experiment [3] is 0.1 ratio to HIV pol 589-597.

B13: CD37-B14 (peptide)
peptide: FLAFVPLDV
Take B13: the binding result in experiment [1] is recorded as “binds”.

B14: CD37-B15 (peptide)
peptide: VLAFVPLGV
Regarding B14, the binding result in experiment [1] is listed as “binds”.
